# Measured values reported in US20230416364A1 (Bristol-Myers Squibb, published 2023).
# T1: human CD25 (IL-2R alpha) on HEK-Blue IL-2 reporter cells (human, UniProt P01589 22-272)
# T1 sequence: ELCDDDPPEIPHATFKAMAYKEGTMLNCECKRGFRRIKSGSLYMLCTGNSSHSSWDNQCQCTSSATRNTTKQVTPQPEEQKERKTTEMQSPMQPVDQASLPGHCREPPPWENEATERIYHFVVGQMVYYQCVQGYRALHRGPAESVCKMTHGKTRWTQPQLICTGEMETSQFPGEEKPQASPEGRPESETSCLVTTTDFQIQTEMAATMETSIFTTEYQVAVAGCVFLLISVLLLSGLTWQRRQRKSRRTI
# B1: anti-mPD-1 mAb 4H2 fused to mCD25 variant a (full-length mCD25 ECD) (other)
# heavy: QVQLKESGPGLVQPSQTLSLTCTVSGFSLTSYNVHWVRQPPGKGLEWMGGMRYNEDTSYNSALKSRLSISRDTSKNQVFLKMNSLQTDDTGTYYCTRDAVYGGYGGWFAYWGQGTLVTVSSAKTTPPSVYPLAPGSAAQTNSMVTLGCLVKGYFPEPVTVTWNSGSLSSGVHTFPAVLESDLYTLSSSVTVPSSTWPSETVTCNVAHPASSTKVDKKIVPRDCGCKPCICTVPEVSSVFIFPPKPKDVLTITLTPKVTCVVVAISKDDPEVQFSWFVDDVEVHTAQTQPREEQFNSTFRSVSELPIMHQDWLNGKEFKCRVNSAAFPAPIEKTISKTKGRPKAPQVYTIPPPKKQMAKDKVSLTCMITDFFPEDITVEWQWNGQPAENYKNTQPIMKTDGSYFVYSKLNVQKSNWEAGNTFTCSVLHEGLHNHHTEKSLSHSPGGGGSGGGGSGGGGSELCLYDPPEVPNATFKALSYKNGTILNCECKRGFRRLKELVYMRCLGNSWSSNCQCTSNSHDKSRKQVTAQLEHQKEQQTTTDMQKPTQSMHQENLTGHCREPPPWKHEDSKRIYHFVEGQSVHYECIPGYKALQRGPAISICKMKCGKTGWTQPQLTCVDEREHHRFLASEESQGSRNSSPESETSCPITTTDFPQPTETTAMTETFVLTMEYK
# light: DTVLTQSPALAVSLGQRVTISCKASETVSSSMYSYIHWYQQKPGQQPKLLIYRASNLESGVPARFSGSGSGTDFTLTIDPVEADDVATYFCQQSWNPWTFGGGTKLELKRADAAPTVSIFPPSSEQLTSGGASVVCFLNNFYPKDINVKWKIDGSERQNGVLNSWTDQDSKDSTYSMSSTLTLTKDEYERHNSYTCEATHKTSTSPIVKSFNRNEC
# notes: also called 4H2-mCD25 variant a; mPD1-mCD25 variant a
# B2: anti-mPD-1 mAb 4H2 fused to mCD25 variant b (other)
# heavy: QVQLKESGPGLVQPSQTLSLTCTVSGFSLTSYNVHWVRQPPGKGLEWMGGMRYNEDTSYNSALKSRLSISRDTSKNQVFLKMNSLQTDDTGTYYCTRDAVYGGYGGWFAYWGQGTLVTVSSAKTTPPSVYPLAPGSAAQTNSMVTLGCLVKGYFPEPVTVTWNSGSLSSGVHTFPAVLESDLYTLSSSVTVPSSTWPSETVTCNVAHPASSTKVDKKIVPRDCGCKPCICTVPEVSSVFIFPPKPKDVLTITLTPKVTCVVVAISKDDPEVQFSWFVDDVEVHTAQTQPREEQFNSTFRSVSELPIMHQDWLNGKEFKCRVNSAAFPAPIEKTISKTKGRPKAPQVYTIPPPKKQMAKDKVSLTCMITDFFPEDITVEWQWNGQPAENYKNTQPIMKTDGSYFVYSKLNVQKSNWEAGNTFTCSVLHEGLHNHHTEKSLSHSPGGGGSGGGGSGGGGSELCLYDPPEVPNATFKALSYKNGTILNCECKRGFRRLKELVYMRCLGNSWSSNCQCTSNSHDKSRKQVTAQLEHQKEQQTTTDMQKPTQSMHQENLTGHCREPPPWKHEDSKRIYHFVEGQSVHYECIPGYKALQRGPAISICKMKCGKTGWTQPQLTCVDEREHHRFLASEESQGSRNSSPESETSCPITTTDFPQP
# light: B1 light
# notes: also called 4H2-mCD25 variant b; mPD1-mCD25 variant b
# B3: mouse IL-2 (ligand, UniProt P04351 21-169, looked up)
# chain: APTSSSTSSSTAEAQQQQQQQQQQQQHLEQLLMDLQELLSRMENYRNLKLPRMLTFKFYLPKQATELKDLQCLEDELGPLRHVLDLTQSKSFQLEDAENFISNIRVTVVKLKGSDNTFECQFDDESATVVDFLRRWIAFCQSIISTSPQ
# Tests used:
# mouse IL-2 = biological target: B3; assay: SPR, Biacore T200, 37° C., fusion captured by anti-mouse IgG on CM4 chip, mIL-2 as analyte
# Protocol: Truncations of mCD25 are presented at FIG. 3A.
# Unless otherwise indicated, binding kinetics were determined with a BIACORE® SPR surface plasmon resonance spectrometer (Biacore AB, Uppsala, Sweden). […] The assay temperature was 37° C. and the running buffer was HEPES buffered saline pH 7.4 supplemented with 0.05% (v/v) Tween-20 and 1 g/L BSA. Purified mPD1−mCD25 variants were captured on a Biacore™ CM4 chip with immobilized anti-mouse IgG polyclonal capture antibody. […] Between cycles, the capture surface was regenerated for three minutes with 10 mM Glycine pH 1.7. Double-referenced sensorgrams were fitted to a 1:1 Langmuir binding model with mass transport to determine equilibrium dissociation constants (KD), as well as association (kₐ) and dissociation (kd) rate constants where appropriate.
# [1] = biological target: T1, human CD25 (IL-2R alpha) on HEK-Blue …; assay: cell-based or functional assay
# [2] = biological target: fully mCD25 modified anti-mPD-1 antibody 4H2, (4H2 mG1 D265A KK CD25.b)2; assay: cell-based or functional assay
# [3] = biological target: hemi-mCD25 modified anti-mPD-1 antibody 4H2 (4H2 mG1 D265A KK CD25.b+4H2 mG1 D265A blank); assay: cell-based or functional assay
Binder,Kd (mouse IL-2) [nM],"EC50 (read off the curve); SEAP reporter (ABS620), HEK-Blue IL-2 CD25+ cells [1] [nM]","EC50 of mIL-2 (read off the curve) with 260 pM fusion; SEAP reporter (ABS620), CD25- mPD-1+ HEK-Blue IL-2 cells [2] [pM]","EC50 of mIL-2 (read off the curve) with 2.6 nM fusion; SEAP reporter (ABS620), CD25- mPD-1+ HEK-Blue IL-2 cells [2] [nM]","EC50 of mIL-2 (read off the curve) with 280 pM fusion; SEAP reporter (ABS620), CD25- mPD-1+ HEK-Blue IL-2 cells [3] [pM]","EC50 of mIL-2 (read off the curve) with 2.8 nM fusion; SEAP reporter (ABS620), CD25- mPD-1+ HEK-Blue IL-2 cells [3] [nM]"
B1,14,,,,,
B2,14,,,,,
B3,,~0.05,~200,~0.1,~300,~0.1
